{
  "source": "paper doi:10.1101/2022.08.23.504973",
  "about": "(bioRxiv, 2022)",
  "binders": {"B1": {"name": "BDNF mature recombinant (brain-derived neurotrophic factor) (ligand, human, UniProt P23560 129-247, looked up)", "chain": "HSDPARRGELSVCDSISEWVTAADKKTAVDMSGGTVTVLEKVPVSKGQLKQYFYETKCNPMGYTKEGCRGIDKRHWNSQCRTTQSYVRALTMDSKKRIGWRFIRIDTSCVCTLTIKRGR"}},
  "biological_target": "KEAP1 (Kelch-like ECH-associated protein 1), recombinant (UniProt Q14145 1-624)",
  "sequence (Q14145 whole entry)": "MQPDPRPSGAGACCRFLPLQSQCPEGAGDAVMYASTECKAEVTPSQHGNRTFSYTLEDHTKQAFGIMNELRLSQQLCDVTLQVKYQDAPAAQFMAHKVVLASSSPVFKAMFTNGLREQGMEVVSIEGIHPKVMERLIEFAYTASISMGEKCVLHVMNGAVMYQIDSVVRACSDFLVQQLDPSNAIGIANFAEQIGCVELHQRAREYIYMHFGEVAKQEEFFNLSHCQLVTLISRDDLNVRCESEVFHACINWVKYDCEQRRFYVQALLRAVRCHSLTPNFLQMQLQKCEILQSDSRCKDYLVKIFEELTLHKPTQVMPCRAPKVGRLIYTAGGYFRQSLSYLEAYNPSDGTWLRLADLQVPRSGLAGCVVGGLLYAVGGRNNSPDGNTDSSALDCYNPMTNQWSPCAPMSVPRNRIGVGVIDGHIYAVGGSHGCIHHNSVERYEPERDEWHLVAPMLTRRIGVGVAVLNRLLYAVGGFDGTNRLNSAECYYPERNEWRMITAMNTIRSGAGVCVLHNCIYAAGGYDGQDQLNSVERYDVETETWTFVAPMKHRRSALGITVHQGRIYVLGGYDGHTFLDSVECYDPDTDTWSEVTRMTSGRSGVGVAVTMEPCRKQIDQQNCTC",
  "test": "SPR",
  "data": [
    {"binder": "B1", "values": [
      {"measurement": "Kd", "value": 2.71, "unit": "nM"},
      {"measurement": "koff", "value": 0.00225, "unit": "s⁻¹"},
      {"measurement": "kon", "value": 828000, "unit": "M⁻¹ s⁻¹"}
    ]}
  ]
}
